The conditions of data set [1]: in vitro; Pavillard et al. 2002; cited from earlier work.
Data set [2] relates to SW48 colon carcinoma cells. The experiment in a line: MTT cytotoxicity assay of CPT-11 activated by BChE variants. The following applies: CPT-11 at 4 mM incubated 72 hours with enzyme, cells exposed at 0.5 mM for 72 hours, versus mock. The protocol:
Clinically relevant concentrations of CPT-11 (0.5-10 mM) were exposed to BChE variants for 24-72 hours at 37° C. Briefly, CPT-11 at 4 mM was incubated for 72 hours with expressed wild-type BChE, the 6-6 variant, or F227A/L286Q variant. SW48 colon carcinoma cells were exposed to the activated CPT-11 at a concentration of 0.5 mM for 72 hours and cell viability measured by the MTT method. The MTT (3-(4,5-dimethylthiazolyl-2)-2,5-diphenyltetrazolium bromide) assay is commercially available and can be used to measure cell viability based on the ability of a cell to reduce a redox sensitive dye. Note the 6-6 variant is a quadruple mutant referenced as A328W/Y332M/S287G/F227A (SEQ ID NO: 16) in the nomenclature used throughout to describe variants. The 6-6 variant contains the following codons at variant positions: GCG encodes alanine at amino acid position 227, GGT encodes glycine at amino acid position 287, ATG encodes methionine at amino acid position 332, and TGG encodes tryptophane at amino acid position 328.

Data set [3] in a line: CPT-11 conversion to SN-38, fluorescent HPLC detection, conditioned media of transiently expressed BChE variants. Format: biochemical. The following applies: for CPT-11 conversion to SN-38 (SN-38 formation by HPLC), in words: 20 mM CPT-11, 72 hours, 37° C., versus mock / wild-type. The method, then: Butyrylcholinesterase variants were assayed for CPT-11 conversion activity using fluorescent High Performance Liquid Chromotography (HPLC) detection of SN-38 formation as described in Dodds and Rivory, Mol. Pharmacol. 56: 1346-1353 (1999), which is incorporated herein by reference. Briefly, conditioned media from transiently expressed BChE variants were exposed to 20 mM CPT-11 for 72 hours at 37° C. and analyzed by HPLC for SN-38 formation (peak at about 4 minutes column retention time).

The conditions of data set [4]: cited from earlier work.
The nature of data set [5]: BChE-mediated CPT-11 hydrolysis, SN38 quantitated by reverse-phase HPLC with fluorescence detection; Km by Hofstee plot. The format is biochemical. Conditions: 37° C., 24 hours, CPT-11 1-80 μM, Hofstee plot. The protocol: BChE plasmid variants were expressed transiently in the human embryonic kidney cell line 293T and assayed for activity at 72 hours post-transfection. Primary screening of variants was performed by indirect measurement of enzymatic activation of CPT-11 (FIG. 2) in SW48 colon carcinoma cell cytotoxicity assays. […] Functional hits identified in these assays were characterized by sequence analysis of the corresponding DNA from the original preps. […] Enzyme was incubated at 37° C. for 24 hours with CPT-11 over a range of concentrations from 1-80 μM. […] Velocity (v) is in light absorbance units at 540 nm. Substrate concentration [s] is μM CPT-11.
Samples were acidified and resolved by reverse-phase HPLC on a NovaPak C18 column to separate SN38 from unactivated CPT-11. SN38 peak area under the curve (AUC) was used to compare CPT-11 activation by the wild-type enzyme to the optimized BChE.4-1 variant.

Data set [6] in a line: o-nitrophenyl acetate (o-NPA) hydrolysis assay of antibody-captured butyrylcholinesterase variants (carboxylesterase activity). The format is biochemical. Conditions: antibody capture/normalization, absorbance 405 nm.
Experimental: A modification of this assay that measures o-NPA activity of butyrylcholinesterase variants normalized by capturing with an anti-butyrylcholinesterase antibody was performed as described below.
Protocol to Determine Carboxylesterase activity of Captured Butyrylcholinesterase by o-Nitrophenyl acetate: • 1) Coat 96-well Immulon 2 plates with rabbit anti-human butyrylcholinesterase (Dako #A0032) at 10 mg/ml in PBS (100 ml/well) overnight at 4° C. • 2) Remove coating solution and block plate with 3% BSA in PBS (250 ml/well) for 2 hours at room temperature. • 3) Add 200 ml butyrylcholinesterase variant conditioned media and incubate at RT for 2 hrs. • 4) Wash plate 3 times with 250 ml/well PBS. • 5) Add 85 ml/well 0.1 M potassium phosphate pH 7.0 • 6) Add 13.6 mg o-NPA to 100 ml acetonitrile, mix to dissolve. Add 100 ml of this stock to 6.3 mls water and mix well. • 7) Wash plate 3 times with PBS. • 8) Add 15 ml of diluted o-NPA substrate. • 9) Read absorbance at 405 nm.
Conditioned media from butyrylcholinesterase variants that were transiently expressed in 293T cells was tested using the above described anti-butyrylcholinesterase antibody capture/normalization assay for carboxylesterase activity. […] The first variant shown in FIG. 1 is F227A (see left-most bar). The level of activity of the other variants can be compared to the level of activity of F227A. […]
In data set [7] the target is T1, CD20 (human, UniProt P11836 1-297).
T1 construct: whole, on cells; also called CD20 cell surface antigen; CD20 on SKW 6.4 human B lymphoma cells
T1 sequence (looked up): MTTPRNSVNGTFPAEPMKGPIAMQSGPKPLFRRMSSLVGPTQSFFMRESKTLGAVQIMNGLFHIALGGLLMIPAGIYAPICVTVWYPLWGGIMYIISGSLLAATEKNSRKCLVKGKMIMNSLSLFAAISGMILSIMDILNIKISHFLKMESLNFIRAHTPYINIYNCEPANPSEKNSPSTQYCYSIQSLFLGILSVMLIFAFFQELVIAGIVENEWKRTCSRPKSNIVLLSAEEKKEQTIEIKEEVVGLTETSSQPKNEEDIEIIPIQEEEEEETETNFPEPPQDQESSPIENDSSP
The experiment in a line: method not stated.

On to `CCc1c2c(nc3ccc(O)cc13)-c1cc3c(c(=O)n1C2)COC(=O)[C@]3(O)CC` [SN38, 7-ethyl-10-hydroxycamptothecin], for which the “cytotoxicity relative to CPT-11” value in data set [1] is “greater than 1000 fold”.

As to F227A/L286Q, the “CPT-11 mediated cytotoxicity in SW48 colon carcinoma cells” value (“CPT-11 mediated cytotoxicity” for short) in data set [2] is on record as “increased tumor cell cytotoxicity”. The “Fold improvement in CPT-11 conversion” value in data set [3] (compared to wild-type butyrylcholinesterase, conditioned media exposed to 20 mM CPT-11 for 72 hours at 37° C., SN-38 by HPLC, conservative values) is given as more than 10 fold. Further, the “CPT-11 conversion to SN-38 (SN-38 formation by HPLC), in words” value in data set [3] (conditioned media) is reported as “increased CPT-11 conversion to SN-38”.

As to `CCc1c2c(nc3ccc(OC(=O)N4CCC(N5CCCCC5)CC4)cc13)-c1cc3c(c(=O)n1C2)COC(=O)[C@]3(O)CC` [CPT-11, 7-ethyl-10-[4-(1-piperidino)-1-piperidine]carbonyloxycamptothecin], in data set [4] (patients treated with 200 mg/m2 CPT-11, for at least 24 hours, Ducreux et al. 2003), the “plasma concentrations of CPT-11” value is reported as “above 0.1 μM”. For the same molecule, the “plasma peak concentration versus dose” value in data set [4] (single agent at up to 500 mg/m^2) is on record as “dose-proportional”.

B1: wild-type butyrylcholinesterase (protein, UniProt P06276 29-602, looked up)
Cholinesterase: EDDIIIATKNGKVRGMNLTVFGGTVTAFLGIPYAQPPLGRLRFKKPQSLTKWSDIWNATKYANSCCQNIDQSFPGFHGSEMWNPNTDLSEDCLYLNVWIPAPKPKNATVLIWIYGGGFQTGTSSLHVYDGKFLARVERVIVVSMNYRVGALGFLALPGNPEAPGNMGLFDQQLALQWVQKNIAAFGGNPKSVTLFGESAGAASVSLHLLSPGSHSLFTRAILQSGSFNAPWAVTSLYEARNRTLNLAKLTGCSRENETEIIKCLRNKDPQEILLNEAFVVPYGTPLSVNFGPTVDGDFLTDMPDILLELGQFKKTQILVGVNKDEGTAFLVYGAPGFSKDNNSIITRKEFQEGLKIFFPGVSEFGKESILFHYTDWVDDQRPENYREALGDVVGDYNFICPALEFTKKFSEWGNNAFFYYFEHRSSKLPWPEWMGVMHGYEIEFVFGLPLERRDNYTKAEEILSRSIVKRWANFAKYGNPNETQNNSTSWPVFKSTEQKYLTLNTESTRIMTKLRAQQCRFWTSFFPKVLEMTGNIDEAEWEWKAGFHRWNNYMMDWKNQFNDYTSKKESCVGL
Consider B1, for which, in data set [2], the “CPT-11 mediated cytotoxicity” value is “significantly enhanced”. Moreover, the Michaelis constant (Km) in data set [5] was determined as 40 µM. Also, the “conversion of CPT-11” value in data set [3] (HPLC assay, conditioned media) was “less than 1%”. For the same molecule, the “CPT-11 conversion to SN-38 (SN-38 formation by HPLC), in words” value in data set [3] (conditioned media) is given as “did not show detectable levels of SN-38”. In addition, in data set [6], the “level of carboxylesterase activity relative to F227A” value is recorded as “approximately 50%”.

B2: 6-6 variant (protein)
chain: EDDIIIATKNGKVRGMNLTVFGGTVTAFLGIPYAQPPLGRLRFKKPQSLTKWSDIWNATKYANSCCQNIDQSFPGFHGSEMWNPNTDLSEDCLYLNVWIPAPKPKNATVLIWIYGGGFQTGTSSLHVYDGKFLARVERVIVVSMNYRVGALGFLALPGNPEAPGNMGLFDQQLALQWVQKNIAAFGGNPKSVTLFGESAGAASVSLHLLSPGSHSLFTRAILQSGSANAPWAVTSLYEARNRTLNLAKLTGCSRENETEIIKCLRNKDPQEILLNEAFVVPYGTPLGVNFGPTVDGDFLTDMPDILLELGQFKKTQILVGVNKDEGTWFLVMGAPGFSKDNNSIITRKEFQEGLKIFFPGVSEFGKESILFHYTDWVDDQRPENYREALGDVVGDYNFICPALEFTKKFSEWGNNAFFYYFEHRSSKLPWPEWMGVMHGYEIEFVFGLPLERRDNYTKAEEILSRSIVKRWANFAKYGNPNETQNNSTSWPVFKSTEQKYLTLNTESTRIMTKLRAQQCRFWTSFFPKVLEMTGNIDEAEWEWKAGFHRWNNYMMDWKNQFNDYTSKKESCVGL
modifications: synthetic butyrylcholinesterase variant
In the case of B2, the “CPT-11 mediated cytotoxicity” value in data set [2] is on record as “increased tumor cell cytotoxicity”.

B3: AME133 Fab (humanized anti-CD20 with fully human germline framework regions) (Fab, V domains shown)
VH: EVQLVQSGAEVKKPGESLKISCKGSGRTFTSYNMHWVRQMPGKGLEWMGAIYPLTGDTSYNQKSKLQVTISADKSISTAYLQWSSLKASDTAMYYCARSTYVGGDWQFDVWGKGTTVTVSS
VL: EIVLTQSPGTLSLSPGERATLSCRASSSVPYIHWYQQKPGQAPRLLIYATSALASGIPDRFSGSGSGTDFTLTISRLEPEDFAVYYCQQWLSNPPTFGQGTKLEIKR
notes: also called monovalent Fab
With B3, binding in data set [7] was put at a Kd of 1 nM.

(Values after patent publication US20050136044A1, “Butyrylcholinesterase variants that alter the activity of chemotherapeutic agents” (priority 2003, published 2005).)
